Results on 14 sequences are retold here after the supplement of paper PMC12764529.

± gives the half width of the 95% confidence interval.

A short description of data set [1]: folding stability dG unfold (combined trypsin and chymotrypsin); higher = more stable. The procedure, abridged: (§1)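 Unfolding free energy was derived, per protease or combined, by relating Bayesian-fitted K50 values from sequencing counts to a sequence-predicted unfolded-state K50 and a shared folded-state K50. The underlying digests exposed cysteine-free mini-proteins under 80 residues, in a PA-tagged cDNA display construct, to trypsin and chymotrypsin at 11 threefold-diluted concentrations and to a no-protease condition. A filter kept only designs with AlphaFold2 dimer inter-PAE above 15.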

The nature of data set [2]: folding stability dG unfold from chymotrypsin proteolysis; higher = more stable. The procedure, abridged: as §1
Data set [3] in a line: folding stability dG unfold from trypsin proteolysis; higher = more stable. The procedure, abridged:
as §1

In the case of “SAGGSAGGSAGMTLLVKNEDGYLVKIEITEVEVDENGELHLKVKVEVLPPLEEVEEVEEESAGGSAGGSAGG [r17_536_TrROS_Hall]”, the “folding stability dG unfold” value in data set [1] is 1.65 ± 0.17 kcal/mol; in data set [2], 1.79 ± 0.054 kcal/mol; in data set [3], 1.4 ± 0.076 kcal/mol.
Turning to “SAGGSAGGSAGMTLRLKIRVYDPETREEVEEKEIEVELPPGASLEELLAALPPEQVEVEFSAGGSAGGSAGG [r17_339_TrROS_Hall]”, the “folding stability dG unfold” value in data set [1] worked out at 0.848 ± 0.15 kcal/mol; in data set [2], 1.1 ± 0.2 kcal/mol; in data set [3] it was 0.534 ± 0.12 kcal/mol.
Taken in the same sequence, the figures for “SAGGSAGGSAGMTLTLEFTDPEVAIPLAEKLAEELGLELVEIEEREEGERPVYLVTLKVPSAGGSAGGSAGG [r11_232_JUSTAS]” were 1.61 ± 0.043 kcal/mol, 1.52 ± 0.021 kcal/mol and 1.63 ± 0.056 kcal/mol.
Regarding “SAGGSAGGSAGMTLTVTSPSSDTPIGTIELPSSLSEEELEAAVEAVRAALPPDVTVEVTGSAGGSAGGSAGG [r11_1081_JUSTAS]”, the “folding stability dG unfold” value was determined as 1.13 ± 0.093 kcal/mol in data set [1], 0.954 ± 0.046 kcal/mol in data set [2] and 1.41 ± 0.084 kcal/mol in data set [3].
Taken in the same sequence, the figures for “SAGGSAGGSAGMTRTVTFTITDPNSSNTTTITVPTTSEQDVAAAKAALKAANPNVTITLTSAGGSAGGSAGG [r11_233_JUSTAS]” were 0.718 ± 0.076 kcal/mol, 0.954 ± 0.092 kcal/mol and 0.3 ± 0.12 kcal/mol.
The matching figures for “SAGGSAGGSAGMTVTTITKTYPFDPNKSLSFTVPPGATITDKKTDADIAKGTVTVTVTVASAGGSAGGSAGG [r11_701_JUSTAS]”: 0.436 ± 0.13 kcal/mol, 0.355 ± 0.13 kcal/mol and 0.345 ± 0.053 kcal/mol.
In the case of “SAGGSAGGSAGMTVTVPPDLDPESAIAALKAAAPASVKTVTLTIVDGEGPTTTVTVDITGSAGGSAGGSAGG [r17_215_JUSTAS]”, the entries for the “folding stability dG unfold” value in data set [1], in data set [2] and in data set [3] were 0.00145 ± 0.096 kcal/mol, 0.209 ± 0.11 kcal/mol and -0.402 ± 0.18 kcal/mol, respectively.
The matching figures for “SAGGSAGGSAGMTYRVRIENADGEVVTIEISADELREKGLTLEELLPPNARIVEVEEVEPSAGGSAGGSAGG [r11_829_TrROS_Hall]”: 3.63 ± 0.09 kcal/mol, 3.61 ± 0.063 kcal/mol and 3.8 ± 0.16 kcal/mol.
Taken in the same sequence, the figures for “SAGGSAGGSAGMVDKKTGKPVEKVKVIIRNKNGKKEEKEVTLEELKELAENLPYEIEFEKSAGGSAGGSAGG [r17_125_TrROS_Hall]” were 1 ± 0.25 kcal/mol, 0.82 ± 0.1 kcal/mol and 1.16 ± 0.079 kcal/mol.
The matching figures for “SAGGSAGGSAGMVETVSTTTSVETGPDSTRYTTTTTTVLVTDSSGTPIATTTTTTTTVTASAGGSAGGSAGG [r17_139_JUSTAS]”: 0.986 ± 0.056 kcal/mol, 0.314 ± 0.17 kcal/mol and 1.45 ± 0.051 kcal/mol.
In the case of “SAGGSAGGSAGMVIELPDGRKAIIVKYDKETKRFYVEIVDKKTGEKKIYEFKSLEEALKASAGGSAGGSAGG [r17_300_TrROS_Hall]”, the “folding stability dG unfold” value in data set [1] came out at 2.79 ± 0.15 kcal/mol; in data set [2], 2.86 ± 0.092 kcal/mol; in data set [3] it was 2.18 ± 0.16 kcal/mol.
Consider “SAGGSAGGSAGMVITLPNGEKVEITFDKENKKITITFPDGKKVEIEIEGMSLEEILKALKSAGGSAGGSAGG [r11_729_TrROS_Hall]”, for which the “folding stability dG unfold” value in data set [1] came out at 3.59 ± 0.089 kcal/mol; in data set [2] it was 3.22 ± 0.075 kcal/mol; in data set [3], 3.84 ± 0.14 kcal/mol.
Taken in the same sequence, the figures for “SAGGSAGGSAGMVLPRPDGSLVVITEHPDGTVTVTFAPPDKPITIEVPKEEPVDIRVFPLSAGGSAGGSAGG [r11_164_TrMRF]” were 1.02 ± 0.046 kcal/mol, 0.324 ± 0.087 kcal/mol and 1.39 ± 0.043 kcal/mol.
As to “SAGGSAGGSAGMVTETTVSRLPDGTVTTTTTEYVVHPDGSLEPVRERTTTTPVPPDVPAASAGGSAGGSAGG [r11_440_JUSTAS]”, the “folding stability dG unfold” value is 0.897 ± 0.037 kcal/mol in data set [1], 1.142 ± 0.011 kcal/mol in data set [2] and 0.396 ± 0.051 kcal/mol in data set [3].
